B1: ANKRD40 (parent)
chain: VCCCELGVNPDQVEKIRKLPNTLL

Variants of: B1
Assay: protein stability index of a GFP-peptide fusion (GPS, HEK-293T) (PSI 1-6); higher = more stable
Details: c terminus: a fixed tail appended
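Note: lentivirally expressed fusions sorted by FACS into six bins by GFP to DsRed ratio, PSI derived from sequencing read proportions per bin multiplied by bin number.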

**Q.** For VCCCELGVNPDQVEKIFKLPNTLL [R17F], which protein stability index is on record?
**A.** 1.92

**Q.** Which protein stability index does the source give for VCCCELGVNPDQVEKIHKLPNTLL [R17H] here?
**A.** 2.23

**Q.** Which protein stability index does the source give for VCCCELGVNPDQVEKIMKLPNTLL [R17M] here?
**A.** 1.9

**Q.** With VCCCELGVNPDQVEKIWKLPNTLL [R17W] as the variant, how does the protein stability index read?
**A.** 1.74

**Q.** For VCCCELGVNPDQVEKIGKLPNTLL [R17G], which protein stability index is on record?
**A.** 1.45

**Q.** With VCCCELGVNPDQVEKIKKLPNTLL [R17K] as the variant, how does the protein stability index read?
**A.** 2.29

**Q.** Which protein stability index does the source give for VCCCELGVNPDQVEKICKLPNTLL [R17C] here?
**A.** 1.46

**Q.** For VCCCELGVNPDQVEKINKLPNTLL [R17N], which protein stability index is on record?
**A.** 1.67

**Q.** With VCCCELGVNPDQVEKIYKLPNTLL [R17Y] as the variant, how does the protein stability index read?
**A.** 1.92

**Q.** With VCCCELGVNPDQVEKIPKLPNTLL [R17P] as the variant, how does the protein stability index read?
**A.** 2.15

**Q.** Which protein stability index does the source give for VCCCELGVNPDQVEKISKLPNTLL [R17S] here?
**A.** 1.94

**Q.** Which protein stability index does the source give for VCCCELGVNPDQVEKILKLPNTLL [R17L] here?
**A.** 1.78

**Q.** For VCCCELGVNPDQVEKIIKLPNTLL [R17I], which protein stability index is on record?
**A.** 3.09

**Q.** With VCCCELGVNPDQVEKITKLPNTLL [R17T] as the variant, how does the protein stability index read?
**A.** 1.47

**Q.** For VCCCELGVNPDQVEKIDKLPNTLL [R17D], which protein stability index is on record?
**A.** 2.21

**Q.** Which protein stability index does the source give for VCCCELGVNPDQVEKIQKLPNTLL [R17Q] here?
**A.** 1.62

**Q.** With VCCCELGVNPDQVEKIVKLPNTLL [R17V] as the variant, how does the protein stability index read?
**A.** 1.82

**Q.** With VCCCELGVNPDQVEKIEKLPNTLL [R17E] as the variant, how does the protein stability index read?
**A.** 2.31

**Q.** Which protein stability index does the source give for VCCCELGVNPDQVEKIAKLPNTLL [R17A] here?
**A.** 1.81

**Q.** For VCCCELGVNPDQVEKLRKLPNTLL [I16L], which protein stability index is on record?
**A.** 1.56

**Q.** With VCCCELGVNPDQVEKYRKLPNTLL [I16Y] as the variant, how does the protein stability index read?
**A.** 1.51

**Q.** With VCCCELGVNPDQVEKCRKLPNTLL [I16C] as the variant, how does the protein stability index read?
**A.** 2.22

**Q.** With VCCCELGVNPDQVEKTRKLPNTLL [I16T] as the variant, how does the protein stability index read?
**A.** 2.56

**Q.** With VCCCELGVNPDQVEKHRKLPNTLL [I16H] as the variant, how does the protein stability index read?
**A.** 1.98

**Q.** With VCCCELGVNPDQVEKKRKLPNTLL [I16K] as the variant, how does the protein stability index read?
**A.** 2.53

**Q.** For VCCCELGVNPDQVEKARKLPNTLL [I16A], which protein stability index is on record?
**A.** 3.14

**Q.** With VCCCELGVNPDQVEKSRKLPNTLL [I16S] as the variant, how does the protein stability index read?
**A.** 2.08

**Q.** With VCCCELGVNPDQVEKPRKLPNTLL [I16P] as the variant, how does the protein stability index read?
**A.** 2.89

**Q.** With VCCCELGVNPDQVEKDRKLPNTLL [I16D] as the variant, how does the protein stability index read?
**A.** 2.76

**Q.** Which protein stability index does the source give for VCCCELGVNPDQVEKMRKLPNTLL [I16M] here?
**A.** 1.67

**Q.** Which protein stability index does the source give for VCCCELGVNPDQVEKWRKLPNTLL [I16W] here?
**A.** 2.13

**Q.** For VCCCELGVNPDQVEKVRKLPNTLL [I16V], which protein stability index is on record?
**A.** 2.38

**Q.** With VCCCELGVNPDQVEKQRKLPNTLL [I16Q] as the variant, how does the protein stability index read?
**A.** 2.32

**Q.** Which protein stability index does the source give for VCCCELGVNPDQVEKFRKLPNTLL [I16F] here?
**A.** 1.69

**Q.** Which protein stability index does the source give for VCCCELGVNPDQVEKERKLPNTLL [I16E] here?
**A.** 3.09

**Q.** Which protein stability index does the source give for VCCCELGVNPDQVEKNRKLPNTLL [I16N] here?
**A.** 3.14

**Q.** For VCCCELGVNPDQVEKRRKLPNTLL [I16R], which protein stability index is on record?
**A.** 2.12

**Q.** Which protein stability index does the source give for VCCCELGVNPDQVEKGRKLPNTLL [I16G] here?
**A.** 2.01

**Q.** For VCCCELGVNPDQVEKIRKAPNTLL [L19A], which protein stability index is on record?
**A.** 2.12

**Q.** With VCCCELGVNPDQVEKIRKNPNTLL [L19N] as the variant, how does the protein stability index read?
**A.** 2.23

**Q.** Which protein stability index does the source give for VCCCELGVNPDQVEKIRKIPNTLL [L19I] here?
**A.** 2.25

**Q.** With VCCCELGVNPDQVEKIRKFPNTLL [L19F] as the variant, how does the protein stability index read?
**A.** 1.57

**Q.** Which protein stability index does the source give for VCCCELGVNPDQVEKIRKWPNTLL [L19W] here?
**A.** 2.73

**Q.** With VCCCELGVNPDQVEKIRKMPNTLL [L19M] as the variant, how does the protein stability index read?
**A.** 2.1

**Q.** For VCCCELGVNPDQVEKIRKSPNTLL [L19S], which protein stability index is on record?
**A.** 2.17

**Q.** For VCCCELGVNPDQVEKIRKYPNTLL [L19Y], which protein stability index is on record?
**A.** 1.76

**Q.** Which protein stability index does the source give for VCCCELGVNPDQVEKIRKDPNTLL [L19D] here?
**A.** 2.9

**Q.** For VCCCELGVNPDQVEKIRKGPNTLL [L19G], which protein stability index is on record?
**A.** 3.13

**Q.** For VCCCELGVNPDQVEKIRKQPNTLL [L19Q], which protein stability index is on record?
**A.** 2.5

**Q.** For VCCCELGVNPDQVEKIRKPPNTLL [L19P], which protein stability index is on record?
**A.** 1.91

**Q.** With VCCCELGVNPDQVEKIRKHPNTLL [L19H] as the variant, how does the protein stability index read?
**A.** 1.79

**Q.** With VCCCELGVNPDQVEKIRKRPNTLL [L19R] as the variant, how does the protein stability index read?
**A.** 2.5

**Q.** With VCCCELGVNPDQVEKIRKCPNTLL [L19C] as the variant, how does the protein stability index read?
**A.** 2.34

**Q.** With VCCCELGVNPDQVEKIRKVPNTLL [L19V] as the variant, how does the protein stability index read?
**A.** 2.62

**Q.** For VCCCELGVNPDQVEKIRKEPNTLL [L19E], which protein stability index is on record?
**A.** 2.73

**Q.** For VCCCELGVNPDQVEKIRKKPNTLL [L19K], which protein stability index is on record?
**A.** 2.48

**Q.** For VCCCELGVNPDQVEKIRKTPNTLL [L19T], which protein stability index is on record?
**A.** 2.33

**Q.** Which protein stability index does the source give for VCCCELGVNPDQVEKIRKLYNTLL [P20Y] here?
**A.** 2.23

**Q.** Which protein stability index does the source give for VCCCELGVNPDQVEKIRKLTNTLL [P20T] here?
**A.** 2.2

**Q.** Which protein stability index does the source give for VCCCELGVNPDQVEKIRKLANTLL [P20A] here?
**A.** 1.88

**Q.** Which protein stability index does the source give for VCCCELGVNPDQVEKIRKLCNTLL [P20C] here?
**A.** 1.38

**Q.** Which protein stability index does the source give for VCCCELGVNPDQVEKIRKLQNTLL [P20Q] here?
**A.** 1.87

**Q.** For VCCCELGVNPDQVEKIRKLENTLL [P20E], which protein stability index is on record?
**A.** 1.4

**Q.** For VCCCELGVNPDQVEKIRKLNNTLL [P20N], which protein stability index is on record?
**A.** 2.3

**Q.** Which protein stability index does the source give for VCCCELGVNPDQVEKIRKLVNTLL [P20V] here?
**A.** 1.82

**Q.** With VCCCELGVNPDQVEKIRKLLNTLL [P20L] as the variant, how does the protein stability index read?
**A.** 2.02

**Q.** With VCCCELGVNPDQVEKIRKLDNTLL [P20D] as the variant, how does the protein stability index read?
**A.** 1.48

**Q.** Which protein stability index does the source give for VCCCELGVNPDQVEKIRKLMNTLL [P20M] here?
**A.** 1.57

**Q.** For VCCCELGVNPDQVEKIRKLGNTLL [P20G], which protein stability index is on record?
**A.** 2.08

**Q.** For VCCCELGVNPDQVEKIRKLRNTLL [P20R], which protein stability index is on record?
**A.** 1.91

**Q.** Which protein stability index does the source give for VCCCELGVNPDQVEKIRKLSNTLL [P20S] here?
**A.** 1.95

**Q.** For VCCCELGVNPDQVEKIRKLKNTLL [P20K], which protein stability index is on record?
**A.** 1.95

**Q.** For VCCCELGVNPDQVEKIRKLHNTLL [P20H], which protein stability index is on record?
**A.** 2.55

**Q.** Which protein stability index does the source give for VCCCELGVNPDQVEKIRKLINTLL [P20I] here?
**A.** 1.38

**Q.** For VCCCELGVNPDQVEKIRELPNTLL [K18E], which protein stability index is on record?
**A.** 2.03

**Q.** For VCCCELGVNPDQVEKIRFLPNTLL [K18F], which protein stability index is on record?
**A.** 2.53

**Q.** With VCCCELGVNPDQVEKIRALPNTLL [K18A] as the variant, how does the protein stability index read?
**A.** 1.26

**Q.** With VCCCELGVNPDQVEKIRRLPNTLL [K18R] as the variant, how does the protein stability index read?
**A.** 2.18

**Q.** Which protein stability index does the source give for VCCCELGVNPDQVEKIRHLPNTLL [K18H] here?
**A.** 2.95

**Q.** Which protein stability index does the source give for VCCCELGVNPDQVEKIRCLPNTLL [K18C] here?
**A.** 1.75

**Q.** With VCCCELGVNPDQVEKIRLLPNTLL [K18L] as the variant, how does the protein stability index read?
**A.** 1.72

**Q.** With VCCCELGVNPDQVEKIRVLPNTLL [K18V] as the variant, how does the protein stability index read?
**A.** 2.15

**Q.** With VCCCELGVNPDQVEKIRILPNTLL [K18I] as the variant, how does the protein stability index read?
**A.** 1.43

**Q.** With VCCCELGVNPDQVEKIRSLPNTLL [K18S] as the variant, how does the protein stability index read?
**A.** 2.08

**Q.** With VCCCELGVNPDQVEKIRPLPNTLL [K18P] as the variant, how does the protein stability index read?
**A.** 1.59

**Q.** Which protein stability index does the source give for VCCCELGVNPDQVEKIRYLPNTLL [K18Y] here?
**A.** 1.31

**Q.** Which protein stability index does the source give for VCCCELGVNPDQVEKIRGLPNTLL [K18G] here?
**A.** 1.53

**Q.** With VCCCELGVNPDQVEKIRTLPNTLL [K18T] as the variant, how does the protein stability index read?
**A.** 1.89

**Q.** For VCCCELGVNPDQVEKIRDLPNTLL [K18D], which protein stability index is on record?
**A.** 2.08

**Q.** For VCCCELGVNPDQVEKIRMLPNTLL [K18M], which protein stability index is on record?
**A.** 1.68

**Q.** For VCCCELGVNPDQVEKIRNLPNTLL [K18N], which protein stability index is on record?
**A.** 1.64

**Q.** With VCCCELGVNPDQVEKIRQLPNTLL [K18Q] as the variant, how does the protein stability index read?
**A.** 1.54

**Q.** With VCCCELGVNPDQVEKIRWLPNTLL [K18W] as the variant, how does the protein stability index read?
**A.** 1.75

**Q.** Which protein stability index does the source give for VCCCELGVNPDQVEPIRKLPNTLL [K15P] here?
**A.** 2.07
